# Reference: the nanobody polyreactivity screen of Harvey et al. (2022)
# Test: yeast display, Sf9 membrane polyspecificity reagent, FACS + sequencing; frameworks hold sequencing errors
# Procedure, shortened: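 Using colony PCR, genes from sorted yeast display clones were amplified, then sequenced on MiSeq at 2 × 250 and filtered by CDR length. The clones had been stained with 10% biotinylated, detergent-solubilized Sf9 membrane reagent for 1 hour at 4 °C and sorted by FACS into low and high (top ~1%) gates on anti-HA and streptavidin fluorescence. Polyreactivity labels come from the gate of origin.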
row,Sequence,polyreactivity (PSR sort gate)
1,QVQLVESGGCLVQAGGSLRLICAASVSIFYYYAMGWYRQAPGKERELVATIRSSDGSTYYADSVKGRFTISRDNAKNTVYLQMYSLKPEDTAVYYCAHGYFRYDYWGQGTQVSVSS,low polyreactivity
2,QVQLVESGGGIVQAGGSLRLSCAASGSIFYQYAMGWYRQAPGKERELVAAISRSGGSTYYADSVKGRFTISRDNAKNNVYLQMNSLKPVDTAVYYCAARAVRAAYDYWGQGTQVTVSS,low polyreactivity
3,QDQLVESGGGLVQAGGSLRLSCAASGSTFVSNAMVWYRQAPGKERELVAAISSSGGRTSYADSVKGRFTISRDNAKNTVYLQMNSLKPEDTAVYYCAARFKSVDYVQYYYWGQGTQVTVSS,low polyreactivity
4,QVQLVESGGALVQAGGSLRLSCAASGFTFFRNAMGWYRQAPGKERELVAAISGSGGSTYYADSVKGRFTISRDNAKNTVYLQMNSLKPEDTAVYYCATYSYPAKVREAYNYWGQGTQVTVSS,low polyreactivity
5,QVKLVESGGGLVQAGGSLRLSCAASGRIFGRNTMGWYRQAPGKEREFVATITSGGSTYYADSVKGRFTISRDNAKNTVYLQMNSLKPEDTAVYYFNARGYSWRWYPLTSDYDSWGQGTQVTVSS,high polyreactivity
6,QVQIVESGRGLFQAGGSLRISCPASGYIFLANAMGLYRQAPGKERELVAAITSGGGGTYYADSVKARFTISGDNAKNPVYLLMNTLKPEDTAVYHCAADHGRDGSSIEYWGHGTQVTVSS,low polyreactivity
7,QVQLVESAGGLVQAGGSLRLSCAAYGSIFGFYAMGWYRQAPGKERELVAAIDSGDSTNYADSVKGRFTISRDNAKNTVYLQMNSLKPEDTAVYYCNAEAWWYFWFDYWGQGTQVTVSS,low polyreactivity
8,QVQHVESGGGLVQAGGSLRLSCAASGRIFYAYAMGWYRQAPGKQREMVAAITARGGSTYYADSVKGRFTISRDNAKNTVYLQINSLKPEDTAVYYCAKDTLLETGYEYWGQGTQVTVSS,high polyreactivity
9,QVQLVESGGGLVQAGGSLRLSCAASGFTFAGYVLGWYRKAPGKDRELVAAISNSGGRTYADSVKGRFTISRDNAKNTVYLQMNSLKPEDTAVYYCAKKPGGFSQASRVDYDYWGQGTQVTVSS,low polyreactivity
10,QVQLVESGGGLVQAGGSLRLSCAASGRIFVYYAMGWYRQAPGKEREFVAAITDSGGGTYYADSVKGRFTISRDNAKNTVYLQMNSLKPEDTAVYYCAKRFGQYRYPYDYWGQGTQVTVSS,high polyreactivity
11,QVQLVESGGGLVQAGGSLRLSCAASGNILSVYTMGWYRQAPGKERELVATITYSGDRTYADSVKGRFTISRDNAKKTVYLQMNSLKPEDTAVYYCNAVYYREGMDYWGQGTQVTVSS,low polyreactivity
12,QVQLVESGGGLVQAGGSLRLSCAASGSTFKSYAMGWYRQAPGKERELVAAINWSGGSTYYADSVKGRFTISRDNAKNTVYLQMTSLKPEDTAVYYCNALYAVRSYDSWGQGTQVTVSS,high polyreactivity
13,QVQLVESGGGLVQAGGSLRLSCAASGITFTFNAMGWYRQAPGKERELVAAITWSGGSTFYADSVKGRFTISRDNAKNTVYLQMNSLKPEDTAVYYCARDTELYVRWLDYWGQGTQVSVSS,low polyreactivity
14,QVQLVESGGGLVQAGGSLRLSCAASGSTFGAYVMGWYRQAPGTERELVAVISSGGSTKYADSVKGRFTISRDNAKNTVYLQMNSLKPEDTAVYYCSARRASRHRYYPFDYWGQGTQVTVSS,high polyreactivity
15,QVQLVESGGGLVQAGGSLRLSCAASGRIFRLYAMGWYRQAPGKERELVATITSGGTYYADSVKGRFTISRDNAKNTVYLQMNSLKPEDTAVYYCAADVYPGYVGSEEYDYWGQGTQETVSS,low polyreactivity
16,QVQLVESGGGLVQAGGSLRLSCAASGSISIRNAMGWYRQAPGTERELVAAITYSGGSTYYADSVKGRFTISRDNAKNTVYLQLNRLKPEDTAVYYCAKDHYRFRYDYWGQGTQVTVSS,low polyreactivity
